# Assay results from patent US20110263454A1, “Methods of Identifying Functional Characteristics of Promoters, Transcription Modifying Proteins and Transcription Modulating Agents” (Salk Institute for Biological Studies, priority 2008, published 2011).
# Tests used:
# hIRF7 promoter = assay: NHR-promoter luciferase screen, hIRF7 promoter; format: cell-based, human; conditions: for Normalized Luc. act., normalized to control / Luc. act., normalized to lacZ: IRF7 promoter reporter; for Normalized Luc. act., normalized to control: HR without or with its ligand, relative to control; for Luc. act., normalized to lacZ: hormone receptor (HR) without or with its ligand; for hIRF7 promoter reporter activity: transcription factor +/- ligand, control = 1.00
# Procedure, shortened: (§1)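 CV-1 cells were co-transfected with 50 ng NHR (homodimer or NHR/RXR heterodimer), 100 ng promoter-luciferase construct and 50 ng LacZ. Luciferase was normalized to LacZ and to a no-NHR/no-ligand control.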
# hCYP3A4 promoter = assay: NHR-promoter luciferase screen, hCYP3A4 promoter; format: cell-based, human; conditions: for Luc. act., normalized to lacZ / Normalized Luc. act., normalized to control: CYP3A4 promoter, HR/ligand component; for hCYP3A4 promoter reporter activity: transcription factor +/- ligand, control = 1.00
# Procedure, shortened: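 CV-1 cells co-transfected with NHR homodimer or NHR/RXR heterodimer (pcDNA3.1, C-terminal V5H6 tag), promoter-luciferase construct and LacZ transfection control. Orphan receptors screened without ligand. Luciferase normalized to LacZ and to no-NHR/no-ligand control.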
# RevErba promoter = assay: NHR-promoter luciferase screen, RevErba (RVRa) promoter; format: cell-based; design: key to mRevErba promoter reporter activity / Normalized Luc. act., normalized to control: luciferase activity normalized to lacZ and to control (no NHR/ligand); conditions: for Luc. act., normalized to lacZ / Normalized Luc. act., normalized to control: HR component without or with ligand; for normalized Luc. act. on a logarithmic scale (column without head, Table 33): log10 of activity normalized to control; for mRevErba promoter reporter activity: transcription factor +/- ligand, control = 1.00
# Procedure, shortened: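 CV-1 cells co-transfected with NHR (pcDNA3.1, C-terminal V5H6 tag) as homodimer or RXR heterodimer, RevErbα promoter–luciferase reporter and LacZ transfection control; ligand added where applicable. Luciferase normalized to LacZ and to no-NHR/no-ligand control.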
# hTNFa promoter = assay: NHR-promoter luciferase screen, hTNFa promoter; format: cell-based, human; conditions: for Luc. act., normalized to lacZ / Normalized Luc. act., normalized to control: TNFa promoter, HR component without or with ligand; for hTNFa promoter reporter activity: transcription factor +/- ligand, control = 1.00
# Procedure, shortened: as §1
# hG6PD promoter = assay: NHR-promoter luciferase screen, hG6PD promoter; format: cell-based, human; conditions: for Luc. act., normalized to lacZ / Normalized Luc. act., normalized to control: G6PD promoter reporter, co-transfected HR, without or with its ligand; for Normalized Luc. act., normalized to control: relative to control; for luciferase activity normalized to lacZ activity and to a control, hG6PD: hG6PD promoter-luciferase, CV-1 cells, NHR +/- ligand, control = 1.00
# Procedure, shortened: as §1
# mUCP2 promoter = assay: NHR-promoter luciferase screen, mUCP2 promoter; format: cell-based, mouse; conditions: for Luc. act., normalized to lacZ / Normalized Luc. act., normalized to control: mUCP2 promoter reporter, co-transfected HR, with or without its ligand; for Normalized Luc. act., normalized to control: relative to control; for luciferase activity normalized to lacZ activity and to a control, mUCP2: mUCP2 promoter-luciferase, CV-1 cells, NHR +/- ligand, control = 1.00
# Procedure, shortened: as §1
Molecule,"Normalized Luc. act., normalized to control (hIRF7 promoter)","Luc. act., normalized to lacZ (hIRF7 promoter)",hIRF7 promoter reporter activity (hIRF7 promoter),"Luc. act., normalized to lacZ (hCYP3A4 promoter)","Normalized Luc. act., normalized to control (hCYP3A4 promoter)",hCYP3A4 promoter reporter activity (hCYP3A4 promoter),"Luc. act., normalized to lacZ (RevErba promoter; RVRa promoter)","Normalized Luc. act., normalized to control (RevErba promoter; RVRa promoter)","normalized Luc. act. on a logarithmic scale (column without head, Table 33) (RevErba promoter; RVRa promoter)",mRevErba promoter reporter activity (RevErba promoter),"Luc. act., normalized to lacZ (hTNFa promoter)","Normalized Luc. act., normalized to control (hTNFa promoter)",hTNFa promoter reporter activity (hTNFa promoter),"Luc. act., normalized to lacZ (hG6PD promoter)","Normalized Luc. act., normalized to control (hG6PD promoter)","luciferase activity normalized to lacZ activity and to a control, hG6PD (hG6PD promoter)","Luc. act., normalized to lacZ (mUCP2 promoter)","Normalized Luc. act., normalized to control (mUCP2 promoter)","luciferase activity normalized to lacZ activity and to a control, mUCP2 (mUCP2 promoter)","negative reciprocal of normalized Luc. act. (fold repression; Table 33) (RevErba promoter; RVRa promoter, given only where activity is below control)"
"RARa: Retinoic acid receptor α (NR1B1), nuclear hormone receptor cDNA driver (protein, UniProt P10276 1-462, looked up) Retinoic acid receptor alpha: MASNSSSCPTPGGGHLNGYPVPPYAFFFPPMLGGLSPPGALTTLQHQLPVSGYSTPSPATIETQSSSSEEIVPSPPSPPPLPRIYKPCFVCQDKSSGYHYGVSACEGCKGFFRRSIQKNMVYTCHRDKNCIINKVTRNRCQYCRLQKCFEVGMSKESVRNDRNKKKKEVPKPECSESYTLTPEVGELIEKVRKAHQETFPALCQLGKYTTNNSSEQRVSLDIDLWDKFSELSTKCIIKTVEFAKQLPGFTTLTIADQITLLKAACLDILILRICTRYTPEQDTMTFSDGLTLNRTQMHNAGFGPLTDLVFAFANQLLPLEMDDAETGLLSAICLICGDRQDLEQPDRVDMLQEPLLEALKVYVRKRRPSRPHMFPKMLMKITDLRSISAKGAERVITLKMEIPGSMPPLIQEMLENSEGLDTLSGQPGGGGRDGGGLAPPPGSCSPSLSPSSNRSSPATHSP",1.5,40.6,1.54,4.2,0.9,0.94,34.6,1.2,0.09,1.24,1363.2,1.4,1.39,57.1,1.5,1.53,232.0,2.1,2.11,–
"PPARd: Peroxisome proliferator activated receptor δ (NR1C2), cDNA driver (protein, UniProt Q03181 1-441, looked up) Peroxisome …: MEQPQEEAPEVREEEEKEEVAEAEGAPELNGGPQHALPSSSYTDLSRSSSPPSLLDQLQMGCDGASCGSLNMECRVCGDKASGFHYGVHACEGCKGFFRRTIRMKLEYEKCERSCKIQKKNRNKCQYCRFQKCLALGMSHNAIRFGRMPEAEKRKLVAGLTANEGSQYNPQVADLKAFSKHIYNAYLKNFNMTKKKARSILTGKASHTAPFVIHDIETLWQAEKGLVWKQLVNGLPPYKEISVHVFYRCQCTTVETVRELTEFAKSIPSFSSLFLNDQVTLLKYGVHEAIFAMLASIVNKDGLLVANGSGFVTREFLRSLRKPFSDIIEPKFEFAVKFNALELDDSDLALFIAAIILCGDRPGLMNVPRVEAIQDTILRALEFHLQANHPDAQYLFPKLLQKMADLRQLVTEHAQMMQRIKKTETETSLHPLLQEIYKDMY",1.3,33.6,1.27,5.0,1.1,1.12,25.3,0.9,−0.04,0.90,1138.3,1.2,1.16,48.7,1.3,1.30,172.7,1.6,1.57,−1.106
"RARg: Retinoic acid receptor γ (NR1B3), nuclear hormone receptor cDNA driver (protein, UniProt P13631 1-454, looked up) Retinoic acid receptor gamma: MATNKERLFAAGALGPGSGYPGAGFPFAFPGALRGSPPFEMLSPSFRGLGQPDLPKEMASLSVETQSTSSEEMVPSSPSPPPPPRVYKPCFVCNDKSSGYHYGVSSCEGCKGFFRRSIQKNMVYTCHRDKNCIINKVTRNRCQYCRLQKCFEVGMSKEAVRNDRNKKKKEVKEEGSPDSYELSPQLEELITKVSKAHQETFPSLCQLGKYTTNSSADHRVQLDLGLWDKFSELATKCIIKIVEFAKRLPGFTGLSIADQITLLKAACLDILMLRICTRYTPEQDTMTFSDGLTLNRTQMHNAGFGPLTDLVFAFAGQLLPLEMDDTETGLLSAICLICGDRMDLEEPEKVDKLQEPLLEALRLYARRRRPSQPYMFPRMLMKITDLRGISTKGAERAITLKMEIPGPMPPLIREMLENPEMFEDDSSQPGPHPNASSEDEVPGGQGKGGLKSPA",1.8,47.5,1.80,4.0,0.9,0.91,39.6,1.4,0.15,1.42,1458.6,1.5,1.48,58.8,1.6,1.57,242.5,2.2,2.21,–
"RARb: Retinoic acid receptor β (NR1B2), nuclear hormone receptor cDNA driver (protein, UniProt P10826 1-455, looked up) Retinoic acid receptor beta: MTTSGHACPVPAVNGHMTHYPATPYPLLFPPVIGGLSLPPLHGLHGHPPPSGCSTPSPATIETQSTSSEELVPSPPSPLPPPRVYKPCFVCQDKSSGYHYGVSACEGCKGFFRRSIQKNMIYTCHRDKNCVINKVTRNRCQYCRLQKCFEVGMSKESVRNDRNKKKKETSKQECTESYEMTAELDDLTEKIRKAHQETFPSLCQLGKYTTNSSADHRVRLDLGLWDKFSELATKCIIKIVEFAKRLPGFTGLTIADQITLLKAACLDILILRICTRYTPEQDTMTFSDGLTLNRTQMHNAGFGPLTDLVFTFANQLLPLEMDDTETGLLSAICLICGDRQDLEEPTKVDKLQEPLLEALKIYIRKRRPSKPHMFPKILMKITDLRSISAKGAERVITLKMEIPGSMPPLIQEMLENSEGHEPLTPSSSGNTAEHSPSISPSSVENSGVSQSPLVQ",1.8,47.2,1.79,4.6,1.0,1.03,45.6,1.6,0.21,1.63,1854.5,1.9,1.89,56.6,1.5,1.52,277.3,2.5,2.52,–
